Test results reported in patent publication US20220323495A1 (NATIONAL RESEARCH COUNCIL OF CANADA, published 2022).

Legend:
[1] = target: T1, human EGFRvIII amino acid residues 15 to 37, yeast-displayed (human, not fully specified); assay: yeast display; smallest EGFRvIII fragment the antibody was able to bind
T1 construct: also called EGFRvIII 15-37 fragment; aa 15-37
T1 peptide: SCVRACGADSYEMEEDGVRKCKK
Source text: (§1) Assessment of the binding of anti-EGFRvIII monoclonal antibodies to the fusion proteins expressed on yeast cell surface was done by flow cytometry analysis. Yeast cells were labeled with both the anti-EGFRvIII monoclonal antibody and chicken anti-Myc antibody the latter being used to monitor the level of expression of the fusion protein. Following a wash step, binding of the primary antibodies is probed by a two-color indirect fluorescence labeling using a specific mouse and chicken secondary antibodies for each of the primary antibody respectively.

[2] = target: T2, EGFRvIII amino acid residues 15 to 37 with Ser15 to Ala mutation, yeast-displayed (human, not fully specified); assay: flow cytometry on yeast displaying the Ala-mutated 15-37 fragment; normalized to Myc-tag; wild-type fragment = 100%
T2 construct: The entry already carries the mutation
T2 peptide: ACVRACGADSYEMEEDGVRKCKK
Source text: as §1
(§2) To further characterize mAb epitopes within the EGFRvIII 15-37 region, an alanine scan of this region was performed, and modified fragments were expressed at the surface of the yeast. […] The resulting DNAs were expressed at the surface of the yeast and each anti-EGFRvIII mAbs was tested on the corresponding yeast mutant strain by flow cytometry analysis. The original Ala19 and Ala22 were not mutated. Thus, this assay determined the contribution of each amino acid(s) in mAb binding in comparison to the original wild-type fragment (SEQ ID NO:5) which is attributed the value of 100%.

[3] = target: T3, EGFRvIII amino acid residues 15 to 37 with Cys16 to Ala mutation, yeast-displayed (human, not fully specified); assay: as above
T3 construct: The entry already carries the mutation
T3 peptide: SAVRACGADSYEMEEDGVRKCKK
Source text: as §1, §2

[4] = target: T4, EGFRvIII amino acid residues 15 to 37 with Ser24 to Ala mutation, yeast-displayed (human, not fully specified); assay: as above
T4 construct: The entry already carries the mutation
T4 peptide: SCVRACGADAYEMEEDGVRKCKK
Source text: as §1, §2

[5] = target: T5, EGFRvIII amino acid residues 15 to 37 with Met27 to Ala mutation, yeast-displayed (human, not fully specified); assay: as above
T5 construct: The entry already carries the mutation
T5 peptide: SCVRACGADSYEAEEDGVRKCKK
Source text: as §1, §2

[6] = target: T6, EGFRvIII amino acid residues 15 to 37 with Glu28 to Ala mutation, yeast-displayed (human, not fully specified); assay: as above
T6 construct: The entry already carries the mutation
T6 peptide: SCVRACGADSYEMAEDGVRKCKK
Source text: as §1, §2

[7] = target: T7, EGFRvIII amino acid residues 15 to 37 with Glu29 to Ala mutation, yeast-displayed (human, not fully specified); assay: as above
T7 construct: The entry already carries the mutation
T7 peptide: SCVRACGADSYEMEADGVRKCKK
Source text: as §1, §2

[8] = target: T8, EGFRvIII amino acid residues 15 to 37 with Asp30 to Ala mutation, yeast-displayed (human, not fully specified); assay: as above
T8 construct: The entry already carries the mutation
T8 peptide: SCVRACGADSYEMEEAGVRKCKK
Source text: as §1, §2

[9] = target: T9, EGFRvIII amino acid residues 15 to 37 with Val32 to Ala mutation, yeast-displayed (human, not fully specified); assay: as above
T9 construct: The entry already carries the mutation
T9 peptide: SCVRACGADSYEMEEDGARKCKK
Source text: as §1, §2

[10] = target: T10, EGFRvIII amino acid residues 15 to 37 with Arg33 to Ala mutation, yeast-displayed (human, not fully specified); assay: as above
T10 construct: The entry already carries the mutation
T10 peptide: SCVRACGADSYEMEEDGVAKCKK
Source text: as §1, §2

[11] = target: T11, EGFRvIII amino acid residues 15 to 37 with Lys34 to Ala mutation, yeast-displayed (human, not fully specified); assay: as above
T11 construct: The entry already carries the mutation
T11 peptide: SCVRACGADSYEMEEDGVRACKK
Source text: as §1, §2

[12] = target: T12, EGFRvIII amino acid residues 15 to 37 with Lys36 to Ala mutation, yeast-displayed (human, not fully specified); assay: as above
T12 construct: The entry already carries the mutation
T12 peptide: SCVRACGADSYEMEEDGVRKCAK
Source text: as §1, §2

[13] = target: T13, EGFRvIII amino acid residues 15 to 37 with Lys37 to Ala mutation, yeast-displayed (human, not fully specified); assay: as above
T13 construct: The entry already carries the mutation
T13 peptide: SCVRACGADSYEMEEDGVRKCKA
Source text: as §1, §2

B1: F265-5B7 anti-EGFRvIII monoclonal antibody (antibody, V domains shown)
VH: QIQLVQSGPELKKPGETVMISCKASGYSFTNYGMNWVKQAPEKDLKWMGWINTYTGESRYVDEFKGRFAFSLETSVSIVYLKINNLKNEDMATYFCARGPNFDVWGTGTTVTVSS
VL: not shown
notes: Mouse hybridoma IgG, tested as supernatant or Protein G purified mAb; also called 5B7-2
binding result [1]: binds | % of binding compared to the wild-type sequence [2]: 91.6% | % of binding compared to the wild-type sequence [3]: 240% | % of binding compared to the wild-type sequence [4]: 230% | % of binding compared to the wild-type sequence [5]: 111% | % of binding compared to the wild-type sequence [6]: 78.5% | % of binding compared to the wild-type sequence [7]: 110% | % of binding compared to the wild-type sequence [8]: 106% | % of binding compared to the wild-type sequence [9]: 101% | % of binding compared to the wild-type sequence [10]: 95.8% | % of binding compared to the wild-type sequence [11]: 193% | % of binding compared to the wild-type sequence [12]: 87.2% | % of binding compared to the wild-type sequence [13]: 143%

B2: F269-3D12 anti-EGFRvIII monoclonal antibody (antibody, V domains shown)
VH: EVQLQQSGPELVKPGSSVRISCKASGYTFTDYNMDWVKQSHGKSLEWIGTINPNNGGTSYNQKFKGKATLTVDKSSSTAYMELRSLTSEDSAVYYCARVRQLGLWFAYWGQGTLVTVSA
VL: EIVLTQSPALMAASPGEKVTITCSVSSSISSSNLHWYQQKSETSPKPWIYGTSNLASGVPVRFSGSGSGTSYSLTISSMEAEDAATYYCQQWSSYPLTFGSGTKLEIK
notes: Mouse hybridoma IgG, tested as supernatant or Protein G purified mAb; also called 3D12-2
binding result [1]: binds | % of binding compared to the wild-type sequence [2]: 90.2% | % of binding compared to the wild-type sequence [3]: 171% | % of binding compared to the wild-type sequence [4]: 233% | % of binding compared to the wild-type sequence [5]: 75.3% | % of binding compared to the wild-type sequence [6]: 71% | % of binding compared to the wild-type sequence [7]: 47.7% | % of binding compared to the wild-type sequence [8]: 78.5% | % of binding compared to the wild-type sequence [9]: 93.8% | % of binding compared to the wild-type sequence [10]: 22.1% | % of binding compared to the wild-type sequence [11]: 137% | % of binding compared to the wild-type sequence [12]: 95.1% | % of binding compared to the wild-type sequence [13]: 162%
